Data reported in paper PMC4079599, “Mixed Disulfide Formation at Cys141 Leads to Apparent Unidirectional Attenuation of Aspergillus niger NADP-Glutamate Dehydrogenase Activity” (PLoS ONE, 2014).
One block for each molecule: values may come before it.

How the values were obtained:
[1] = target: T1, AnGDH (NADP-glutamate dehydrogenase from Aspergillus niger, recombinant) (Aspergillus niger, UniProt B6V7E4); test: time-dependent inactivation of forward activity, kapp versus concentration; assay type: biochemical; conditions: covalent, mixed disulfide at Cys141; incubation at 37°C; residual activity in standard forward assay pH 8.0
T1 construct: full-length cDNA in pET43.1(b) NdeI/HindIII, E. coli BL21(DE3), without a tag, purified
T1 sequence (B6V7E4 1-460): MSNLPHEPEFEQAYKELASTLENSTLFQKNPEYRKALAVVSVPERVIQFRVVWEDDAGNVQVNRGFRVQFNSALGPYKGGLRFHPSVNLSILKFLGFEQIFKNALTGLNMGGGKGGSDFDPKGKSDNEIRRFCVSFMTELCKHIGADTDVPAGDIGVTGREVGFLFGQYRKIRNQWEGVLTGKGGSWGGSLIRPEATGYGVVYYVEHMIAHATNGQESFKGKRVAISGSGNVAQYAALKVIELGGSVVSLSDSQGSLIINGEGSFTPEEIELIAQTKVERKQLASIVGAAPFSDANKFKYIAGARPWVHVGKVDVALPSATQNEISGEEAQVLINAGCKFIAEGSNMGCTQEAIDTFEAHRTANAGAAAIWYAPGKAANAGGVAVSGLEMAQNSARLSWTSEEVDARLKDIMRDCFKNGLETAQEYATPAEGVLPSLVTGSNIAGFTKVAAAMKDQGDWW

[2] = target: T1, AnGDH (NADP-glutamate dehydrogenase from Aspergillus niger, recombinant); test: residual forward activity after […] h incubation; assay type: biochemical; conditions: covalent; saturated cystine (0.47 mM), 1 h, 37°C; standard forward assay pH 8.0
N = test: purified protein; conditions: forward reaction, Tris-HCl pH 8.0, 2-oxoglutarate and NADPH, room temperature
N[C@@H](CCC(=O)O)C(=O)O = test system: T2, N[C@@H](CCC(=O)O)C(=O)O; test: purified protein; assay type: biochemical, Aspergillus niger; conditions: reverse reaction, Tris-HCl pH 9.3, NADP+, room temperature
T2 construct: full-length cDNA in pET43.1(b) NdeI/HindIII, E. coli BL21(DE3), without a tag, purified

O=C(O)CCC(=O)C(=O)O = test system: T3, O=C(O)CCC(=O)C(=O)O; test: purified protein; assay type: biochemical, Aspergillus niger; conditions: forward reaction, sigmoid saturation, Tris-HCl pH 8.0, ammonium chloride and NADPH, room temperature
T3 construct: full-length cDNA in pET43.1(b) NdeI/HindIII, E. coli BL21(DE3), without a tag, purified

purified protein [3] = substrate: N; test: purified protein; conditions: forward reaction, Tris-HCl pH 8.0, 2-oxoglutarate and NADPH, room temperature; remark: listed apart in the source
purified protein [4] = substrate: NC(=O)C1=CN([C@@H]2O[C@H](COP(=O)(O)OP(=O)(O)OC[C@H]3O[C@@H](n4cnc5c(N)ncnc54)[C@H](OP(=O)(O)O)[C@@H]3O)[C@@H](O)[C@H]2O)C=CC1; test: purified protein; assay type: biochemical, Aspergillus niger; conditions: forward reaction, Tris-HCl pH 8.0, 2-oxoglutarate and ammonium chloride, room temperature
purified protein [5] = substrate: NC(=O)c1ccc[n+]([C@@H]2O[C@H](COP(=O)(O)OP(=O)(O)OC[C@H]3O[C@@H](n4cnc5c(N)ncnc54)[C@H](OP(=O)(O)O)[C@@H]3O)[C@@H](O)[C@H]2O)c1; test: purified protein; assay type: biochemical, Aspergillus niger; conditions: reverse reaction, Tris-HCl pH 9.3, L-glutamate, room temperature
purified protein [6] = substrate: N[C@@H](CCC(=O)O)C(=O)O; test: purified protein; assay type: biochemical, Aspergillus niger; conditions: reverse reaction, Tris-HCl pH 9.3, NADP+, room temperature
purified protein [7] = substrate: O=C(O)CCC(=O)C(=O)O; test: purified protein; assay type: biochemical, Aspergillus niger; conditions: forward reaction, sigmoid saturation, Tris-HCl pH 8.0, ammonium chloride and NADPH, room temperature

Molecule: OCCSSCCO [2-HED]
second order inactivation rate constant [1]: 0.937 M⁻¹ s⁻¹

Residual activity (%) / Forward [2]: 8.3±1.9%
Molecule: N[C@@H](CSSC[C@H](N)C(=O)O)C(=O)O [Cystine]

Molecule: AnGDH (NADP-glutamate dehydrogenase from Aspergillus niger, recombinant) (Aspergillus niger; C141S)
Km (N): 1200 µM
Km (N[C@@H](CCC(=O)O)C(=O)O): 28600 µM
K0.5 (O=C(O)CCC(=O)C(=O)O): 4.00 mM

Molecule: AnGDH (NADP-glutamate dehydrogenase from Aspergillus niger, recombinant) (Aspergillus niger; C415S)
Km (N[C@@H](CCC(=O)O)C(=O)O): 36800 µM
K0.5 (O=C(O)CCC(=O)C(=O)O): 15.50 mM

B1: AnGDH (NADP-glutamate dehydrogenase from Aspergillus niger, recombinant) (Aspergillus niger) (protein)
chain: MSNLPHEPEFEQAYKELASTLENSTLFQKNPEYRKALAVVSVPERVIQFRVVWEDDAGNVQVNRGFRVQFNSALGPYKGGLRFHPSVNLSILKFLGFEQIFKNALTGLNMGGGKGGSDFDPKGKSDNEIRRFCVSFMTELCKHIGADTDVPAGDIGVTGREVGFLFGQYRKIRNQWEGVLTGKGGSWGGSLIRPEATGYGVVYYVEHMIAHATNGQESFKGKRVAISGSGNVAQYAALKVIELGGSVVSLSDSQGSLIINGEGSFTPEEIELIAQTKVERKQLASIVGAAPFSDANKFKYIAGARPWVHVGKVDVALPSATQNEISGEEAQVLINAGCKFIAEGSNMGCTQEAIDTFEAHRTANAGAAAIWYAPGKAANAGGVAVSGLEMAQNSARLSWTSEEVDARLKDIMRDCFKNGLETAQEYATPAEGVLPSLVTGSNIAGFTKVAAAMKDQGDWW
notes: full-length cDNA in pET43.1(b) NdeI/HindIII, E. coli BL21(DE3), without a tag, purified
Km (purified protein [3]): 1100 µM
Km (purified protein [4]): 23 µM
Km (purified protein [5]): 28 µM
Km (purified protein [6]): 30900 µM
K0.5 (purified protein [7]): 5.70 mM
